Results taken from PMC2782731.

Legend:
[1] = substrate: CC1=C(/C=C/C(C)=C/C=C/C(C)=C/C=O)C(C)(C)CCC1; assay: HPLC of retinol formed, microsomes of Sf9 cells; format: biochemical, Drosophila melanogaster; conditions: apparent; 1 mM NADPH; BSA-solubilized substrate; ambient temperature; reduction
[2] = substrate: CC1=C(/C=C/C(C)=C/C=C/C(C)=C/C=O)C(C)(C)CC(O)C1; assay: HPLC of 3-hydroxyretinol formed, microsomes of Sf9 cells; format: biochemical, Drosophila melanogaster; conditions: apparent; 1 mM NADPH; BSA-solubilized substrate; ambient temperature; reduction

Protein	Km [1] [µM]	Km [2] [µM]	Vmax [2] [µmol/min/mg]	Vmax [1] [µmol/min/mg]
CG30491 (Drosophila melanogaster) (protein) MSLFAFLKSRTAFWLSFTGTTTGLAFFVKDLMQGGQFTKETNETGKVFIVTGANTGIGKETVREIAKRGGTVYMACRNLKKCEEAREEIVLETKNKYVYCRQCDLASQESIRHFVAAFKREQEHLHVLINNAGVMRCPRSLTSDGIELQLGVNHMGHFLLTNLLLDLLKKSSPSRIVNVSSLAHTRGEINTGDLNSDKSYDEGKAYSQSKLANVLFTRELAKRLEGTNVTANALHPGVVDTEIIRHMGFFNNFFAGLFVKPLFWPFVKTPRNGAQTSLYVALDPELEKVTGQYFSDCKLKEMAPAATDTQTAKWLWAVSEKWTKPTMIKIQ	0.6 ± 0.1	3.2 ± 0.3	0.029	
CG3842 (Drosophila melanogaster) (protein) MSEAATPPGSVPGTVFPPGFDPTAESVEKTLCFRGFWAWAVLIFLIVLGILLFMWLLRKCIQGPAYRKANRIDGKVVIVTGCNTGIGKETVLELAKRGARVYMACRDPGRCEAARLDIMDRSRNQQLFNRTLDLGSLQSVRNFVERFKAEESRLDILINNAGVMACPRTLTADGFEQQFGVNHLGHFLLTNLLLDRLKHSSPSRIVVVSSAAHLFGRINREDLMSEKNYSKFFGAYSQSKLANILFTLKLSTILKDTGVTVNCCHPGVVRTEINRHFSGPGWMKTALQKGSLYFFKTPKAGAQTQLRLALDPQLEGSTGGYYSDCMRWPLFPWVRNMQTADWLWRESEKLLGLPPLEPPPPVQSPTQNGNGTQNGNGSSSASASASSNNPASREMQSVETVVVNRS	0.27 ± 0.05	4.1 ± 0.1	0.025	0.007
CG2064 (Drosophila melanogaster) (protein) MCIFIDCLLSPLIMWPATIGVGIYFLKEYMQGGKFTKDTDETGKVFIVTGANTGIGKETALEIARRGGTVYLACRDMNRCEKARKDIIKETNNQNIFSRELDLSSLDSIRKFVDGFKKEQPKLHVLINNAGVMRCPKTLTKDGYELQLGVNHIGHFLLTNLLLDVLKNSAPSRIVVVSSLAHARGSINVADLNSEKSYDEGLAYSQSKLANVLFTRELAKRLEGSGVTVNALHPGVVDTELARNWAFFQTNLVKFFLKPMIWPLLKTPKSGAQTSIYAALDPELKNISGLYFSDCKPKPVASGALDDKVAKFLWAESEKWTGLDKLEANN	4.2 ± 1.2	2.7 ± 0.9	0.00045	0.0016
CG2065 (Drosophila melanogaster) (protein) MQGGQFTKQTDETGKVFIVTGANTGIGKETVLEIAKRGGTVYMACRDMNRCEKARQDIIRETNNQNIFSRELDLSSLESIRKFAAGFKKEQDKLHVLINNAGVMHCPRTLTKDGFEMQLGVNHMGHFLLTHLLLDVLKKTAPSRIVNVSSLVHTQGFIKTADLNSEKSYSRIGAYSQSKLANVLFTRELAKRLEGTGVTTNSLHPGAVDTELSRNWKFLKHPFAQLLLKPLLWVLFKTPRNGAQTTLYAALDPALKDVSGLYFSDCQPKEVSAAAQDDKTGKFLWAESEKWTGVNSTKVD	0.7 ± 0.1	4.4 ± 0.6	0.001	0.0016
CG2070 (Drosophila melanogaster) (protein) MSAPTDYLFCPLAYGSALSAIGIYLLRQYMQGGQFTTKTNETGRVAIVTGCNQGIGKETVLELARRGATVYMACRDMKKCENARREIIKATNNQNIFARQLDLCSMKSIRNFAAGFKREQNKLHILINNAGIMDCPKMLTEDGFEMQIGVNHMGHFLLTLLLLDVLKSSAPSRVVVLSSIAHRFGRIKRDDLNSEKSYDRKMAYCQSKLANVLFTRELAKRLSGTGVTVNALHPGVVNTELFRNTPFLGSWFGKLLIAPIIWIFIKTARNGAQTTLYAALDPSLEKVSGRYFSDCKQKHVGSAAQYDDDAQFLWAESEKWTGINI	0.4 ± 0.1			0.021
